One assay has as its target T1, FAM19A5 mutant M1 (human).
T1 chain: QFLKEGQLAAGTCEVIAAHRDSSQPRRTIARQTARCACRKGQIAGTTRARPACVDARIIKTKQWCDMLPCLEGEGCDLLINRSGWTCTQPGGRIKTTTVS
Put plainly: ELISA on phage-expressed FAM19A5 mutants M1-M8.

The target of another assay is T2, FAM19A5 mutant M2 (human).
T2 chain: T1 chain with V15I, I16V, A17T, A18L, H19D, D21C, S22C, S23N, Q24K, P25N
Put plainly: ELISA on phage-expressed FAM19A5 mutants M1-M8.

In the next assay the target is T3, FAM19A5 mutant M3 (human).
T3 chain: T1 chain with V15I, I16V, A17T, A18L, H19D, R27I, T28E, I29E, A30R, R31S
Kind of assay: ELISA on phage-expressed FAM19A5 mutants M1-M8.

A further assay concerns the target T4, FAM19A5 mutant M4 (human).
T4 chain: T1 chain with V15I, I16V, A17T, A18L, H19D, A34V, R35K, A37S, R39F, K40P
Put plainly: ELISA on phage-expressed FAM19A5 mutants M1-M8.

A further assay has as its target T5, FAM19A5 mutant M6 (human).
T5 chain: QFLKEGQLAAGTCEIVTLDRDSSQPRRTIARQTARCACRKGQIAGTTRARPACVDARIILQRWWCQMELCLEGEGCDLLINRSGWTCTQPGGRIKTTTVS
Put plainly: ELISA on phage-expressed FAM19A5 mutants M1-M8.

Another assay concerns the target T6, FAM19A5 mutant M7 (human).
T6 chain: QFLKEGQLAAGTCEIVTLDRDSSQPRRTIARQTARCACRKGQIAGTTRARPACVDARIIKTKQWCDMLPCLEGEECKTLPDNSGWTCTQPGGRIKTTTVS
Kind of assay: ELISA on phage-expressed FAM19A5 mutants M1-M8.

In the next assay the target is T7, FAM19A5 mutant M8 (human).
T7 chain: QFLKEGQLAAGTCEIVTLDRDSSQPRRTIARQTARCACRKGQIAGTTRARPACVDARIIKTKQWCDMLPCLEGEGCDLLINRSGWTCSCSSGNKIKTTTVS
Put plainly: ELISA on phage-expressed FAM19A5 mutants M1-M8.

In assay [1] the target is T8, FAM19A5 epitope fragment F1, BSA-conjugated (human, also: conjugated to BSA).
T8 construct: which number belongs to which fragment is not spelled out
T8 peptide: QLAAGTCEIVTLDR
Kind of assay: ELISA, plate-coated BSA-conjugated FAM19A5 fragments F1-F6. How it is done:
(§1) Binding of the different anti-FAM19A5 antibodies to the BSA-conjugated peptide fragments F1-F6 was determined by Western blot analysis or ELISA assay. For the Western blot analysis, BSA-conjugated FAM19A5 fragments F1-F6 were separated by SDS polyacrylamide gel electrophoresis and transferred to a nitrocellulose membrane by the standard procedure. The membrane was incubated with the anti-FAM19A5 antibody (e.g., 1-65, […], 1-65-scFv-rabbit Fc-SSS), and the antigen-antibody complexes were detected with the appropriate secondary antibody conjugated with horse-radish peroxidase (anti-rabbit IgG (Fc specific)-HRP, 1:4000 dilution). For the ELISA assay, the following protocol was used. FAM19A5 fragment F1-F6 (diluted to 1 μg/mL in 50 mM carbonate buffer (Biosesang) or to 20 μg/mL for high concentration analysis) were used to coat the wells of 96-well immuno plates (Thermo Scientific) (100 μL/well) overnight at 4° C. and then subsequently washed twice in 1×PBS. The plates were then blocked with the blocking buffer (100 μL/well) for 1 hour at room temperature. During the 1-hour incubation, the relavant anti-FAM19A5 antibodies were diluted to 1 μg/mL (or 20 μg/mL for high concentration analysis) in the diluent buffer. Once the plates were washed (2× using 1×PBS), the diluted anti-FAM19A5 antibodies were added to the appropriate wells, and the plates were incubated at room temperature for 1 hour. The plates were subsequently washed for a total of five times using the washing buffer. Next, the ODP substrate (prepared by dissolving one ODP tablet (O-phenylenediamine Dihydrochloride, Thermo) into 9 mL of sterilized deionized water and 1 mL of 10× stable Peroxide Stable buffer (Theromo)) was added to each of the wells, and the color change reaction was allowed to occur for 10 minutes. This reaction was stopped by adding 100 μL of 2N H2SO4 (Daejung) to the wells. The absorption value of each of the wells was detected at 492 nm using a 96-well microplate reader (Molecular Device).
(§2) As shown in FIGS. 19 and 20A, the anti-FAM19A5 antibody 1-65 bound strongly to fragment F5 as measured by both Western Blot and ELISA assay, respectively.

The target of assay [2] is T9, FAM19A5 epitope fragment F2, BSA-conjugated (human, conjugated to BSA).
T9 peptide: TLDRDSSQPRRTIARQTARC
The description is as above. How it is done: as §1, §2

Assay [3] addresses T10, FAM19A5 epitope fragment F3, BSA-conjugated (human, conjugated to BSA).
T10 peptide: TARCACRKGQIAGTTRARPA
The description is as above. How it is done:
as §1, §2

For assay [4], the target named is T11, FAM19A5 epitope fragment F4, BSA-conjugated (human, conjugated to BSA).
T11 peptide: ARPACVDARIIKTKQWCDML
The description is as above. How it is done: as §1, §2

Assay [5] deals with T12, FAM19A5 epitope fragment F5, BSA-conjugated (human, conjugated to BSA).
T12 peptide: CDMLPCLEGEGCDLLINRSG
The assay is described as above. How it is done: as §1, §2

The target in assay [6] is T13, FAM19A5 epitope fragment F6, BSA-conjugated (human, conjugated to BSA).
T13 peptide: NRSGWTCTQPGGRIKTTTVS
Described as above. How it is done: as §1, §2

The target of assay [7] is T14, Human FAM19A5 protein (Wild Type) (human, UniProt Q7Z5A7 44-132).
T14 construct: also called FAM19A5 antigen; TAFA5
Kind of assay: value given in the HDX-MS sample preparation; method of its determination not stated.

Another assay deals with T15, F2-01-BSA (#1) (human, conjugated to BSA).
T15 construct: already contained in the entry; also called mutant F2 peptide fragment #1
T15 peptide: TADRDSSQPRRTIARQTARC
Kind of assay: ELISA, plate-coated F2 mutant peptides (BSA-conjugated).

The target of the next assay is T16, F2-02-BSA (#2) (human, conjugated to BSA).
T16 construct: already contained in the entry; also called mutant F2 peptide fragment #2
T16 peptide: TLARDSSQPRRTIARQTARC
The assay is described as above.

The next assay has as its target T17, F2-04-BSA (#4) (human, conjugated to BSA).
T17 construct: already contained in the entry; also called mutant F2 peptide fragment #4
T17 peptide: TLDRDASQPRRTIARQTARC
The assay is described as above.

Another assay addresses T18, F2-05-BSA (#5) (human, conjugated to BSA).
T18 construct: already contained in the entry; also called mutant F2 peptide fragment #5
T18 peptide: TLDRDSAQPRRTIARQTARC
Described as above.

Another assay addresses T19, F2-06-BSA (#6) (human, conjugated to BSA).
T19 construct: already contained in the entry; also called mutant F2 peptide fragment #6
T19 peptide: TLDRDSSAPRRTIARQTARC
The description is as above.

A further assay concerns the target T20, F2-07-BSA (#7) (human, conjugated to BSA).
T20 construct: already contained in the entry; also called mutant F2 peptide fragment #7
T20 peptide: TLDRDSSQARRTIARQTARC
The assay is described as above.

The target in a further assay is T21, F2-08-BSA (#8) (human, conjugated to BSA).
T21 construct: already contained in the entry; also called mutant F2 peptide fragment #8
T21 peptide: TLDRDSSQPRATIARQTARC
Described as above.

The next assay deals with T22, F2-09-BSA (#9) (human, conjugated to BSA).
T22 construct: already contained in the entry; also called mutant F2 peptide fragment #9
T22 peptide: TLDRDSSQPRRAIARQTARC
The description is as above.

The target in a further assay is T23, F2-10-BSA (#10) (human, conjugated to BSA).
T23 construct: already contained in the entry; also called mutant F2 peptide fragment #10
T23 peptide: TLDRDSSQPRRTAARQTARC
The description is as above.

The target of another assay is T24, F2-12-BSA (#12) (human, conjugated to BSA).
T24 construct: already contained in the entry; also called mutant F2 peptide fragment #12
T24 peptide: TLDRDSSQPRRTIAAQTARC
Described as above.

The target of a further assay is T25, F2-13-BSA (#13) (human, conjugated to BSA).
T25 construct: already contained in the entry; also called mutant F2 peptide fragment #13
T25 peptide: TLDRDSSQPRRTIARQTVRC
The assay is described as above.

Assay [8] concerns the target T9, FAM19A5 epitope fragment F2, …. Put plainly: ELISA, plate-coated BSA-conjugated FAM19A5 fragments F1-F6 (data not shown). Here is the method:
Binding of the different anti-FAM19A5 antibodies to the BSA-conjugated peptide fragments F1-F6 was determined by Western blot analysis or ELISA assay. For the Western blot analysis, BSA-conjugated FAM19A5 fragments F1-F6 were separated by SDS polyacrylamide gel electrophoresis and transferred to a nitrocellulose membrane by the standard procedure. The membrane was incubated with the anti-FAM19A5 antibody (e.g., 1-65, […], 1-65-scFv-rabbit Fc-SSS), and the antigen-antibody complexes were detected with the appropriate secondary antibody conjugated with horse-radish peroxidase (anti-rabbit IgG (Fc specific)-HRP, 1:4000 dilution). For the ELISA assay, the following protocol was used. FAM19A5 fragment F1-F6 (diluted to 1 μg/mL in 50 mM carbonate buffer (Biosesang) or to 20 μg/mL for high concentration analysis) were used to coat the wells of 96-well immuno plates (Thermo Scientific) (100 μL/well) overnight at 4° C. and then subsequently washed twice in 1×PBS. The plates were then blocked with the blocking buffer (100 μL/well) for 1 hour at room temperature. […] The absorption value of each of the wells was detected at 492 nm using a 96-well microplate reader (Molecular Device).
as §2

Numbering of substitutions follows the chain as printed. Ends that are not written are not given here.

B1: Anti-FAM19A5 antibody 2-13 (antibody, V domains shown)
VH: AVTLDESGGGLQTPGGALSLVCKASGFTFSSHGMFWVRQTPGKGLEYVAEITNDGSGTNYGSAVKGRATISRDNGQSTVRLQLNNLRAEDTGTYFCARSTYECPGGFSCWGDTGQIDAWGHGTEVIVSS
VL: ALTQPSSVSANPGETVKITCSGGSYSYGWFQQKSPGSALVTVIYWDDERPSDIPSRFSGALSGSTNTLTITGVQADDEAVYFCGTEDISGTAGVFGAGTTLTVL
notes: also called clone 2-13
Turning to B1, the binding result is listed as “binds” in the assay with FAM19A5 mutant M1; “binds” with FAM19A5 mutant M2; “binds” with FAM19A5 mutant M3; “no binding” in the assay with FAM19A5 mutant M4; “binds” with FAM19A5 mutant M6; “binds” with FAM19A5 mutant M7. Besides, the binding result (with FAM19A5 mutant M8; in assay [1]; in assay [2]; in [3]; in assay [4]; in assay [5]) was “no binding” in each case. Besides, in [6], the binding result is reported as “no binding”. This molecule also yielded a Kd in assay [7] of 1 nM.

B2: Anti-FAM19A5 antibody 1-28 (antibody, V domains shown)
VH: AVTLDESGGGLQTPGGALSLVCKASGFDFSDYGMGWVRQAPGKGLEWVAAIRSDGSNPSYGSAVKGRATISKDNGRSTVRLQLNNLRAEDTATYYCAKDGNGYCALDAYRSGGYSCGVYPGSIDAWGHGTEVIVSS
VL: ALTQPSSVSANLEGTVEITCSGSGYGYGWYQQKSPGSAPVTVIYQNDKRPSDIPSRFSGSKSGSTGTLTITGVQVEDEAVYYCGSEDSSTLAGIFGAGTTLTVL
Consider B2, for which the binding result with FAM19A5 mutant M2 is recorded as “no binding”; with F2-01-BSA (#1), “binds”; in the assay with F2-02-BSA (#2), “binds”; with F2-04-BSA (#4) it was “binds”; with F2-05-BSA (#5) it was “binds”; with F2-06-BSA (#6), “binds”. The binding result with F2-07-BSA (#7), in the assay with F2-08-BSA (#8), with F2-09-BSA (#9), with F2-10-BSA (#10), with F2-12-BSA (#12) and with F2-13-BSA (#13) was “binds” in each case. In assay [8], the binding result is listed as “binds”.
